Experimental data reported in publication PMC3166162, “A Dual Binding Mode for RhoGTPases in Plexin Signalling” (PLoS Biology, 2011).
Each block holds one molecule with its values, some of them ahead of it.

Legend:
[1] = target: Plexin-B1_(cyto) (entire cytoplasmic domain of human Plexin-B1, residues 1511-2135) (human) (UniProt O43157); test: crystal structure; Plexin-B1_(cyto) and Rac1* mixed 1:1.2; 1 M Li2SO4, 0.5 M ammonium sulphate, 0.1 M citrate pH 5.6; 4.4 Å; three complexes in the asymmetric unit
Plexin-B1Δ2 Leu1815Glu [2] = target: Plexin-B1Δ2 Leu1815Glu (human, UniProt O43157-1 1543-2135, Leu1815Glu, biotin, added enzymatically within the engineered C-terminal tag); test: SPR; surface 5,000 RU
Target sequence in this assay (O43157 1543-2135 L1815E): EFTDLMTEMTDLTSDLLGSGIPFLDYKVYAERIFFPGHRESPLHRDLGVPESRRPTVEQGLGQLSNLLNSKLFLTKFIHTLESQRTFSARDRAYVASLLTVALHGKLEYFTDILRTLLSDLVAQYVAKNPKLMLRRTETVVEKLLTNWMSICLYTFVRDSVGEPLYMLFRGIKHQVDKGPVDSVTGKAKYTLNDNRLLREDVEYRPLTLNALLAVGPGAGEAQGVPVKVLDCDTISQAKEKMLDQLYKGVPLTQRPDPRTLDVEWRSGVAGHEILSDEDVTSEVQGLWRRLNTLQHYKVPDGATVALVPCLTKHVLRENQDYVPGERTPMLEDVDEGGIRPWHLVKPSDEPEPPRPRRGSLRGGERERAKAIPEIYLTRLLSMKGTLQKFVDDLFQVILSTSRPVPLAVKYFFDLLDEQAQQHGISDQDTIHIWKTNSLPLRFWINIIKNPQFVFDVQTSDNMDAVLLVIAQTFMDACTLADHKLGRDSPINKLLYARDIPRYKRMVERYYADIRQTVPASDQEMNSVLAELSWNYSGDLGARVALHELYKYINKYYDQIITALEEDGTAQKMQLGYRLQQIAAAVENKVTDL

[3] = target: Plexin-B1_(cyto) Arg1921Ala (human, UniProt O43157-1 1511-2135, Arg1921Ala, biotin, added enzymatically within the engineered C-terminal tag); test: SPR
Target sequence in this assay (O43157 1511-2135 R1921A): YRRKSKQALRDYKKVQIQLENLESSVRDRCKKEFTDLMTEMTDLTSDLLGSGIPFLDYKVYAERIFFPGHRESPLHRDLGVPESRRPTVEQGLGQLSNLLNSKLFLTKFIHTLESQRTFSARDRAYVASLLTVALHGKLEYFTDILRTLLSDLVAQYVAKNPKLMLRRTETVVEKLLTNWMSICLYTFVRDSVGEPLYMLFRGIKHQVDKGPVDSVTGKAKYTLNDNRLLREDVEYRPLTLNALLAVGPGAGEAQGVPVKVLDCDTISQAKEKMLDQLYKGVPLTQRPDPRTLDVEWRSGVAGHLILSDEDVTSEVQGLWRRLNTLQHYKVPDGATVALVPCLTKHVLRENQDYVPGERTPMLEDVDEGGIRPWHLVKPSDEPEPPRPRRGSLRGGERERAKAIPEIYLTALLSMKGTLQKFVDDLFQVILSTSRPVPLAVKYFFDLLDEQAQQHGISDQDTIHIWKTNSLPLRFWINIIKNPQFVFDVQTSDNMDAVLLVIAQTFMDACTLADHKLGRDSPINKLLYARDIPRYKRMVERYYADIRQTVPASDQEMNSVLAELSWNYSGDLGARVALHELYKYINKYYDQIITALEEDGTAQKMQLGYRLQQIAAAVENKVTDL

[4] = target: Plexin-B1_(cyto) Thr1920Glu (human, UniProt O43157-1 1511-2135, Thr1920Glu, biotin, added enzymatically within the engineered C-terminal tag); test: SPR
Target sequence in this assay (O43157 1511-2135 T1920E): as the sequence (O43157 1511-2135 R1921A) above, with T410E, A411R counted along it

[5] = target: Plexin-B1_(cyto) Leu2036Arg (human, UniProt O43157-1 1511-2135, Leu2036Arg, biotin, added enzymatically within the engineered C-terminal tag); test: SPR
Target sequence in this assay (O43157 1511-2135 L2036R): as the sequence (O43157 1511-2135 R1921A) above, with A411R, L526R counted along it

Plexin-B1Δ2 Leu1815Glu [6] = target: T1, Plexin-B1Δ2 Leu1815Glu (human, UniProt O43157-1 1543-2135, Leu1815Glu, biotin, added enzymatically within the engineered C-terminal tag); test: SPR; as a1, high coupling density: 5,000 RU of the plexin construct loaded on the chip; RhoGTPase 120 nM to 2,000 µM; settings: both partners purified
T1 construct: human Plexin-B1, cytoplasmic region lacking the N-terminal helix, residues 1543-2135; also called site A Plexin-B1Δ2 mutant Leu1815Glu^Plex; source: HEK 293T cells, transfected, purified; not shown: engineered tag for enzymatic biotinylation, C-terminal, kept
T1 sequence (O43157 1543-2135 L1815E): as the sequence (O43157 1543-2135 L1815E) above

[7] = target: T2, Plexin-B1_(cyto) Thr1920Glu (human, UniProt O43157-1 1511-2135, Thr1920Glu, biotin, added enzymatically within the engineered C-terminal tag); test: SPR; Biacore T100, 25°C, standard buffer with 0.05% (v/v) Tween 20; biotinylated plexin constructs on streptavidin surfaces (500-5,000 RU); RhoGTPase injected, 120 nM to 500 µM; equilibrium responses fitted to a 1:1 Langmuir model; settings: both partners purified
T2 construct: human Plexin-B1, cytoplasmic region, residues 1511-2135; also called Thr1920Glu^Plex; site B mutant; source: HEK 293T cells, transfected, purified; not shown: engineered tag for enzymatic biotinylation, C-terminal, kept
T2 sequence (O43157 1511-2135 T1920E): as the sequence (O43157 1511-2135 R1921A) above, with T410E, A411R counted along it

[8] = target: T3, Plexin-B1_(cyto) Leu2036Arg (human, UniProt O43157-1 1511-2135, Leu2036Arg, biotin, added enzymatically within the engineered C-terminal tag); test: as above; settings: both partners purified
T3 construct: human Plexin-B1, cytoplasmic region, residues 1511-2135; also called Leu2036Arg^Plex; site B mutant; source: HEK 293T cells, transfected, purified; not shown: engineered tag for enzymatic biotinylation, C-terminal, kept
T3 sequence (O43157 1511-2135 L2036R): as the sequence (O43157 1511-2135 R1921A) above, with A411R, L526R counted along it

[9] = target: T4, Plexin-B1_(cyto) Arg1921Ala (human, UniProt O43157-1 1511-2135, Arg1921Ala, biotin, added enzymatically within the engineered C-terminal tag); test: as above; settings: both partners purified
T4 construct: human Plexin-B1, cytoplasmic region, residues 1511-2135; also called Arg1921Ala^Plex; site B mutant; source: HEK 293T cells, transfected, purified; not shown: engineered tag for enzymatic biotinylation, C-terminal, kept
T4 sequence (O43157 1511-2135 R1921A): as the sequence (O43157 1511-2135 R1921A) above

[10] = target: T5, Plexin-B1_(cyto), wild type, biotinylated within an engineered C-terminal tag for SPR (human, UniProt O43157-1 1511-2135, biotin, added enzymatically within the engineered C-terminal tag); test: as above; settings: both partners purified
T5 construct: human Plexin-B1, cytoplasmic region, residues 1511-2135; also called Plexin-B1cyto WT; full-length Plexin-B1_(cyto); source: purified; mutant constructs for SPR: HEK 293T; not shown: engineered tag for enzymatic biotinylation, C-terminal, kept
T5 sequence (O43157 1511-2135, change not shown): as the sequence (O43157 1511-2135 R1921A) above, with A411R counted along it

stoichiometry N [1]: 3
Molecule: Plexin-B1_(cyto) (entire cytoplasmic domain of human Plexin-B1, residues 1511-2135) (from UniProt O43157-1 1511-2135) (domain or fragment)

Kd (Plexin-B1Δ2 Leu1815Glu [2]): 486 µM | Kd [3]: 15.2 µM | Kd [4]: 14.2 µM | Kd [5]: 16.5 µM | binding result (Plexin-B1Δ2 Leu1815Glu [6]): binds | binding result [7]: binds | binding result [8]: binds | binding result [9]: binds | Kd [10]: 22.9 µM
B1: Rnd1 (residues 5-200) (enzyme, human, UniProt Q92730 5-200, looked up)
chain: RAPQPVVARCKLVLVGDVQCGKTAMLQVLAKDCYPETYVPTVFENYTACLETEEQRVELSLWDTSGSPYYDNVRPLCYSDSDAVLLCFDISRPETVDSALKKWRTEILDYCPSTRVLLIGCKTDLRTDLSTLMELSHQKQAPISYEQGCAIAKQLGAEIYLEGSAFTSEKSIHSIFRTASMLCLNKPSPLPQKSPV
notes: human Rnd1, residues 5-200; source: E. coli BL21 Star, purified
